Assay results as given in patent publication US7439329B2, “GEF-H1b: biomarkers, complexes assays and therapeutic uses thereof” (Sugen, Inc., priority 2002, dated 2008).

What was measured:
[1] = biological target: T1, PAK4 (Homo sapiens, UniProt O96013); assay: In vitro kinase assay, phosphorylation of substrates by PAK4; type: biochemical; conditions: autoradiography
T1 construct: Glutathione-s-transferase (GST) fused PAK4 (residues 291-591); GST (N); made in house
Method: Next examined, was whether GEF-H1 is a PAK4 substrate. In vitro kinase assays were performed using a GEF-H1 GST-fusion protein, a Maguin-2-like GST-fusion protein and GST control protein as substrates for phosphorylation by PAK4.
The cDNA encoding GEF-H1S obtained in the phage display screen was excised and subcloned into pGEX-4T expression vector to allow for recombinant production of protein for in vitro experiments. The GEF-H1S protein was then mixed with PAK4 kinase and incubated such that PAK4 phosphorylated the GEF-H1S. A portion of this kinase reaction was separated by SDS-PAGE and autoradiographed to visualize the extent of phosphorylation. […] SDS-PAGE is a universal protein separation and visualization technique that is described in Laemmli, Nature, 227(259):680-5, 1970.
From the phosphorylation experiments described above, two peptides of GEF-H1S were identified as being targets for PAK4-induced phosphorylation. The GEF-H1S target residues were identified by aligning the PAK4 activation loop peptide with the GEF-H1S polypeptide sequence amino acids 762 to 921.
The following phosphoisomers (phosphate-modified GEF-H1S peptides) were used in PAK4 kinase assays to determine which residues were specifically phosphorylated. Because certain residues were modified to comprise a phosphate moiety (the underlined residues below), they could not be phosphorylated by PAK4.
Glutathione-s-transferase (GST) fused PAK4 (residues 291-591), GEF-H1 amino acids 763-921 (from phage clone 13.8 sequence, matches KIAA0651) and Maguin 2-like (from phage clone 13.32, sequence matches accession # XP-087831) were purified by standard procedures and as previously described 31. Amino acid sequence of peptides spanning GEF-H1b 807-824 #1008 (RRRSLPAGDALYLpSFNPP) (SEQ ID NO: 28), #1009 (RRRpSLPAGDALYLSFNPP) (SEQ ID NO: 29), #1010 (RRRSLPAGDALpYLSFNPP ) (SEQ ID NO: 30) and #934 (RRRSLPAGDALYLSFNPP) (SEQ ID NO: 3) used for in vitro kinase assays. In vitro kinase reactions were run as described previously 31.

[2] = biological target: T2, GEF-H1S (Homo sapiens, UniProt Q92974, INS962GETLAETWTR); assay: Pull-down of GEF-H1 with PAK4 domains and biotinylated PAK4 peptides; type: binding; conditions: biotinylated PAK4 peptides linked to streptavidin beads
T2 sequence (Q92974 with tags, fused parts or gaps): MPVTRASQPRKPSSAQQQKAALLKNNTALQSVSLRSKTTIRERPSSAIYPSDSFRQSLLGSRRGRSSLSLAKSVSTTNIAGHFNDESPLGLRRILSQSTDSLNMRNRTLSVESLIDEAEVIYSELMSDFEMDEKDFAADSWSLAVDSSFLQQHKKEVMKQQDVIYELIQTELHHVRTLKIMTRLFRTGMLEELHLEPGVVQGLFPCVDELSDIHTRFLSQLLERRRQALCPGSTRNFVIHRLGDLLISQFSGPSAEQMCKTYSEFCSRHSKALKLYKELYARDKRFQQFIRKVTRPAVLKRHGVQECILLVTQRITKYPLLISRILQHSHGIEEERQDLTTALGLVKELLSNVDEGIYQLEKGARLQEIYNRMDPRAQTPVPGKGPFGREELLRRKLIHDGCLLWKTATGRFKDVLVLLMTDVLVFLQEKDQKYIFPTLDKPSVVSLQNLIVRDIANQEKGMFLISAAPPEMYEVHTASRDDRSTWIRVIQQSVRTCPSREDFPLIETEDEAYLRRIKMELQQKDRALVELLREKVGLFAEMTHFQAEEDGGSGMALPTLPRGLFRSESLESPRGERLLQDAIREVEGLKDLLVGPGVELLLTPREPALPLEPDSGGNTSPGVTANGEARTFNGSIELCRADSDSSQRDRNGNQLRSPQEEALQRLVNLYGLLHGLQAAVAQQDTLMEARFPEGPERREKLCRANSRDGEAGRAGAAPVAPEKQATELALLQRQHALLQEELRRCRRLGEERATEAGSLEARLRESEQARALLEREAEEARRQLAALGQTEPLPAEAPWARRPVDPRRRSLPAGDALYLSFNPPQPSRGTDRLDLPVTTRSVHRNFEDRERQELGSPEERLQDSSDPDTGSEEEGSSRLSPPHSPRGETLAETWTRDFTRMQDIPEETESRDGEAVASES
Method: FIG. 1: (SEQ ID NOs 32-34 respectively in order of appearance) Direct binding of GEF-H1 to PAK4. Lysates were prepared from 293T cells over expressing (a) myc tagged PAK4 alleles or subdomains and incubated with GST, GST-GEF-H1 (787-921) and GST-Maguin-like bound to Glutathione beads (1,2,3,4 bead designation) or (b) GFP-GEF-H1 and incubated with PAK4 biotinylated peptides (291-355) and (276-324) linked to streptavidin beads. An equivalent amount of beads and excess lysates (500 ug) were used. Eluates of beads and total lysates were analysed by SDS-PAGE and immunoblotted with myc or GEF-H1 antiserum; (c) represents a PAK4 gene schematic outlining the regions of PAK4 used to identify the GEF-H1 interaction domain (GID). d, alignment of the GID defined by the minimal binding region of PAK4 with PAK5 and PAK6.
To confirm the in vitro interaction of GEF-H1S with PAK4, bacterially expressed GST-fusion proteins were generated with the identical sequences isolated by phage display, encoding either amino acids 763-921 of GEF-H1S or amino acids 385-555 from the Maguin-2-like protein. These fusion proteins were bound to glutathione beads and utilized in binding assays with 293T lysates expressing exogenous PAK4.
Biotinylated peptides derived from the N-terminal region of PAK4 sequence were used to further map the GEF-H1 binding site. […]

T1 sequence (O96013 291-591): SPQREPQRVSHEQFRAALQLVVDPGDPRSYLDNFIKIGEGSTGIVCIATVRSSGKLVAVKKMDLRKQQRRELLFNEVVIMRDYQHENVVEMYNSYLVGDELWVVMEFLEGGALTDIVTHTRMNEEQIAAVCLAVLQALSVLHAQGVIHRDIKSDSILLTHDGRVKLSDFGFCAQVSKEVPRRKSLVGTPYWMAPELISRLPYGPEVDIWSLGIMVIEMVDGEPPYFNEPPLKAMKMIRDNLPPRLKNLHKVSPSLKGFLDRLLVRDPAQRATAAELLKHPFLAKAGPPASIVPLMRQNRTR

Row | Sequence | phosphorylation by PAK4 in vitro [1] | interaction with GEF-H1S [2]
1 | RQSLLGSRRGRSSLSLAK [GEF-H1 residues 55-72] | phosphorylated | –
2 | RRRSLPAGDALYLSFNPP [amino acids 807-824, GEF-H1S peptide surrounding Ser 810] | high affinity substrate | –
3 | CTPAAPAVPAVPGPPGPRSPQREPQRVSHEQFRAALQLVVDPGDPRSYLDNF (biotin) [amino acids 276-324] | – | strong interaction
4 | PRRRSLPAGDALYLSFNPP | phosphorylated | –
